For test [1], the target named is hOX40L added as soluble protein in cell assays (human) (UniProt P23510). Description: cell-based or functional assay.
Test [2] has as its target Recombinant Human OX40L Protein, His Tag (Acro Cat. IL3-H52H4) (human) (UniProt P23510). In words: SPR (Biacore 8K), antibody captured, human OX40L injected, 1:1 fit. For orientation: Surface plasmon resonance follows binding to a sensor surface in real time, without labels.

One may read the Kd as a measure of binding affinity in units of concentration. One may read the koff as the first-order rate constant of dissociation. As a reminder, the kon is a measure of how fast the partners come together.

Chain of hOX40L added as soluble protein in cell assays (human) (P23510 51-183 limits assumed): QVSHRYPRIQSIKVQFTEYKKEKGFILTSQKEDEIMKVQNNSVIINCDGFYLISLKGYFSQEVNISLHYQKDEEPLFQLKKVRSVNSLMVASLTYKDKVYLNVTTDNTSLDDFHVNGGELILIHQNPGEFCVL
Chain of Recombinant Human OX40L Protein, His Tag (Acro Cat. IL3-H52H4) (human) (P23510 51-183 limits assumed): as above

B1: positive control based on the sequences of the anti-hOX40L antibody amlitelimab (antibody, IgG4, V domains shown)
VH: EVQLVESGGGLVQPGGSLRLSCAASGFTFSNYAMNWVRQAPGKGLEWVSTISGSGGATRYADSVKGRFTISRDNSRNTVYLQMNSLRVEDTAVFYCTKDRLIMATVRGPYYYGMDVWGQGTTVTVSS
VL: DIQMTQSPSSLSASVGDRVTITCRASQSISSYLNWYQQKPGKAPNLLIYAASSLQSGVPSRFSGSGSETDFTLTISSLQPEDFATYYCQQSHSVSFTFGPGTKVDIK
Turning to B1, in test [1], the IC50, luminescence (RLU), hOX40 reporter cells with 50 ng/mL hOX40L came out at 1.17 nM; the Mean IFNγ concentration, MLR + OX40L (1000 ng/ml); donor pairing 1; antibody 4 nM was 201 pg/mL; the Mean IFNγ concentration, MLR + OX40L (1000 ng/ml); donor pairing 1; antibody 20 nM is 41.4 pg/mL; the Mean IFNγ concentration, MLR + OX40L (1000 ng/ml); donor pairing 1; antibody 100 nM came out at 145 pg/mL. For the same molecule, in test [1], the Mean IFNγ concentration, MLR + OX40L (1000 ng/ml); donor pairing 3; antibody 4 nM turned out to be 1050 pg/mL; the Mean IFNγ concentration, MLR + OX40L (1000 ng/ml); donor pairing 3; antibody 20 nM was found to be 520 pg/mL; the Mean IFNγ concentration, MLR + OX40L (1000 ng/ml); donor pairing 3; antibody 100 nM amounted to 75.4 pg/mL; the Mean IFNγ concentration, MLR + OX40L (1000 ng/ml); donor pairing 4; antibody 4 nM came out at 1170 pg/mL. Also, in test [1], the Mean IFNγ concentration, MLR + OX40L (1000 ng/ml); donor pairing 4; antibody 20 nM stood at 424 pg/mL; the Mean IFNγ concentration, MLR + OX40L (1000 ng/ml); donor pairing 4; antibody 100 nM was determined as 161 pg/mL; the Mean IFNγ concentration, MLR + OX40L (1000 ng/ml); donor pairing 5; antibody 4 nM came out at 1350 pg/mL; the Mean IFNγ concentration, MLR + OX40L (1000 ng/ml); donor pairing 5; antibody 20 nM came out at 780 pg/mL. Moreover, in test [1], the Mean IFNγ concentration, MLR + OX40L (1000 ng/ml); donor pairing 5; antibody 100 nM came to 878 pg/mL; the Mean IFNγ concentration, MLR + OX40L (1000 ng/ml); donor pairing 6; antibody 4 nM is 780 pg/mL; the Mean IFNγ concentration, MLR + OX40L (1000 ng/ml); donor pairing 6; antibody 20 nM is 279 pg/mL; the Mean IFNγ concentration, MLR + OX40L (1000 ng/ml); donor pairing 6; antibody 100 nM worked out at 202 pg/mL. Further, in test [1], the Mean IFNγ concentration, MLR + OX40L (1000 ng/ml); donor pairing 8; antibody 4 nM amounted to 17.3 pg/mL; the Mean IFNγ concentration, MLR + OX40L (1000 ng/ml); donor pairing 8; antibody 20 nM worked out at 10.8 pg/mL; the Mean IFNγ concentration, MLR + OX40L (1000 ng/ml); donor pairing 8; antibody 100 nM came out at 92.5 pg/mL. Besides, in test [2], the Kd turned out to be 0.071 nM, the koff worked out at 0.000112 s⁻¹ and the kon stood at 1.58e+06 M⁻¹ s⁻¹.

(Values after US20260217843A1.)
